Assay results published in patent WO2011014457A1 (dated 2011).

Columns and labels:
human AxI ECD-His = molecular target: T1, human AxI ECD-His (human, UniProt P30530 26-451); assay: SPR (BIAcore-3000), IgG captured by anti-human IgG, human AxI ECD-His injected
T1 construct: extracellular domain; also called human AxI ECD-His protein; Hu AxI

human Tyro-3Fc = molecular target: T2, human Tyro-3Fc (human, UniProt Q06418 41-428, limits assumed); assay: ELISA, Fc fusion captured on anti-human IgG Fc
T2 sequence (looked up): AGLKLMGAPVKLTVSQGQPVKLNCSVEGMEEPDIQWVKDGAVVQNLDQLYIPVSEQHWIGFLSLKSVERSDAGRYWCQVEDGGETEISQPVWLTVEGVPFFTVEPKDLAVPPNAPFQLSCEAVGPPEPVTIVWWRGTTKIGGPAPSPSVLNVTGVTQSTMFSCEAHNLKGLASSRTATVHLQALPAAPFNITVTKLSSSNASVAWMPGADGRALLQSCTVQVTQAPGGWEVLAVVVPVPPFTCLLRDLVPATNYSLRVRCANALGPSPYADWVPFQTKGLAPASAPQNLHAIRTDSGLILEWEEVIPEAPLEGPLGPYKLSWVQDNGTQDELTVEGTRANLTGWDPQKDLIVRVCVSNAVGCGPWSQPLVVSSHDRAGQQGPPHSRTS

human MerFc = molecular target: T3, human MerFc (human, UniProt Q12866 21-499, limits assumed); assay: ELISA, Fc fusion captured on anti-human IgG Fc
T3 sequence (looked up): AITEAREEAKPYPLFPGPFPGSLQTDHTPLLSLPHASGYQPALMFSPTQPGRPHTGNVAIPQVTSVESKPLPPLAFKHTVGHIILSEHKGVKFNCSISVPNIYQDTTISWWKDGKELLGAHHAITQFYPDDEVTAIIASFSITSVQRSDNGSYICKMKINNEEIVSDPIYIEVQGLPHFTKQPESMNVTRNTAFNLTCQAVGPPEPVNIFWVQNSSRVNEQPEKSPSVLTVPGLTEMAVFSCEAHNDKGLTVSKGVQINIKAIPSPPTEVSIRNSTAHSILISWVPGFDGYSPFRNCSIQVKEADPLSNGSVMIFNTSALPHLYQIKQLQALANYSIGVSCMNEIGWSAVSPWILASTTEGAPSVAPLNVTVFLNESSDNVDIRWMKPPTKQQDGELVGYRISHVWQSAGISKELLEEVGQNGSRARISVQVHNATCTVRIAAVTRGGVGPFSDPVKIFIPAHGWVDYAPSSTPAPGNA

[1] = molecular target: T4, murine AxI ECD-Fc fusion protein (murine, UniProt Q00993 19-445); assay: SPR (BIAcore-3000), murine AxI ECD-Fc captured by anti-human IgG, anti-Axl Fab fragment injected (per methods)
T4 construct: extracellular domain; also called murine AxIFc; mouse AxI.Fc
T4 sequence (Q00993 19-445): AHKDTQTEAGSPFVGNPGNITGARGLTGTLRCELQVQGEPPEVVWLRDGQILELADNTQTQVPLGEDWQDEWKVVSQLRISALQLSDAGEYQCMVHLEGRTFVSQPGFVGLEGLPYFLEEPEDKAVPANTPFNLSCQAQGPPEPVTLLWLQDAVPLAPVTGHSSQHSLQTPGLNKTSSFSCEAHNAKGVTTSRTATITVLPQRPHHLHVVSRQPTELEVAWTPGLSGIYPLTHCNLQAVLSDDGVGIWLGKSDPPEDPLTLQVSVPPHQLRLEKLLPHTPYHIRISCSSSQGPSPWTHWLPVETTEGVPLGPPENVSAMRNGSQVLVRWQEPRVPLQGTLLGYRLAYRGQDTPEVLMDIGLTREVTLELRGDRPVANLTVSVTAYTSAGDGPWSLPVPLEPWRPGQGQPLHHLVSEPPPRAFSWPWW

B1: YW327.6S2 (antibody, V domains shown)
VH: EVQLVESGGGLVQPGGSLRLSCAASGFSLSGSWIHWVRQAPGKGLEWVGWINPYRGYAYYADSVKGRFTISADTSKNTAYLQMNSLRAEDTAVYYCAREYSGWGGSSVGYAMDYWGQGTLV
VL: DIQMTQSPSSLSASVGDRVTITCRASQDVSTAVAWYQQKPGKAPKLLIYSASFLYSGVPSRFSGSGSGTDFTLTISSLQPEDFATYYCQQSYTTPPTFGQGTKVEIKR
notes: also called AxI mAb YW327.6S2
**Q.** For B1, which Kd (human AxI ECD-His) is on record?
**A.** ~1000 pM

**Q.** Does B1 bind (human Tyro-3Fc)?
**A.** no binding

**Q.** Does B1 bind (human MerFc)?
**A.** no binding

B2: YW327.6S2 Fab fragment (Fab, V domains shown)
VH: EVQLVESGGGLVQPGGSLRLSCAASGFSLSGSWIHWVRQAPGKGLEWVGWINPYRGYAYYADSVKGRFTISADTSKNTAYLQMNSLRAEDTAVYYCAREYSGWGGSSVGYAMDYWGQGTLV
VL: DIQMTQSPSSLSASVGDRVTITCRASQDVSTAVAWYQQKPGKAPKLLIYSASFLYSGVPSRFSGSGSGTDFTLTISSLQPEDFATYYCQQSYTTPPTFGQGTKVEIKR
notes: also called anti-Axl Fab fragment
**Q.** How did the Kd [1] turn out when B2 was run?
**A.** 545 pM
